Test results reported in article PMC12102759 (2025).

B1: AXIN1 peptide 235-250 (Axin-1), 16-mer library wild type / PP2A B56 (PPP2R5A B56 domain, residues 1-486) (parent complex)
chain 1: SGYLPTLNEDEEWKAD
chain 2: not shown

Variants of: B1
Assay: proteomic peptide phage display deep mutational scan (ProP-PD DMS): M13 P8 16-mer library selected against immobilised GST-tagged bait for four days (rounds), NGS of the eluted pools per day and pseudo-replica; bait immobilised on MaxiSorp plates (10 µg), library pre-cleared on GST, 2 h binding at 4 °C, five washes; one round per day, days 1-4; value from days 2 and 3

Q: chain 1 E12Y was tested. Which screen value did it give?
A: The screen value was 0.000809 average fractional NGS count over selection days 2 and 3 (reads of this peptide / all reads for the bait, averaged over ….

Q: With chain 1 E12M as the variant, how does the screen value read?
A: The screen value was 0.000888 average fractional NGS count over selection days 2 and 3 (reads of this peptide / all reads for the bait, averaged over ….

Q: chain 1 E12S was tested. Which screen value did it give?
A: Its screen value is 0.000153 average fractional NGS count over selection days 2 and 3 (reads of this peptide / all reads for the bait, averaged over ….

Q: For chain 1 E12I, which screen value is on record?
A: The screen value was 0.00181 average fractional NGS count over selection days 2 and 3 (reads of this peptide / all reads for the bait, averaged over ….

Q: chain 1 N8M was tested. Which screen value did it give?
A: The screen value was 0.000721 average fractional NGS count over selection days 2 and 3 (reads of this peptide / all reads for the bait, averaged over ….

Q: How did the screen value turn out when chain 1 N8L was run?
A: Its screen value is 0.000128 average fractional NGS count over selection days 2 and 3 (reads of this peptide / all reads for the bait, averaged over ….

Q: Which screen value does the source give for chain 1 N8V here?
A: Its screen value is 0.022 average fractional NGS count over selection days 2 and 3 (reads of this peptide / all reads for the bait, averaged over ….

Q: chain 1 N8Q was tested. Which screen value did it give?
A: The screen value was 0.00306 average fractional NGS count over selection days 2 and 3 (reads of this peptide / all reads for the bait, averaged over ….

Q: How did the screen value turn out when chain 1 N8I was run?
A: The screen value was 0.00188 average fractional NGS count over selection days 2 and 3 (reads of this peptide / all reads for the bait, averaged over ….

Q: chain 1 D16A was tested. Which screen value did it give?
A: Its screen value is 0.00219 average fractional NGS count over selection days 2 and 3 (reads of this peptide / all reads for the bait, averaged over ….

Q: For chain 1 D16F, which screen value is on record?
A: Its screen value is 0.00025 average fractional NGS count over selection days 2 and 3 (reads of this peptide / all reads for the bait, averaged over ….

Q: With chain 1 D16Q as the variant, how does the screen value read?
A: Its screen value is 0.00121 average fractional NGS count over selection days 2 and 3 (reads of this peptide / all reads for the bait, averaged over ….

Q: chain 1 D10S was tested. Which screen value did it give?
A: The screen value was 0.000583 average fractional NGS count over selection days 2 and 3 (reads of this peptide / all reads for the bait, averaged over ….

Q: For chain 1 D10W, which screen value is on record?
A: Its screen value is 0.0017 average fractional NGS count over selection days 2 and 3 (reads of this peptide / all reads for the bait, averaged over ….

Q: With chain 1 D10Q as the variant, how does the screen value read?
A: The screen value was 0.00101 average fractional NGS count over selection days 2 and 3 (reads of this peptide / all reads for the bait, averaged over ….

Q: How did the screen value turn out when chain 1 D10A was run?
A: Its screen value is 0.00348 average fractional NGS count over selection days 2 and 3 (reads of this peptide / all reads for the bait, averaged over ….

Q: chain 1 D10I was tested. Which screen value did it give?
A: The screen value was 0.00126 average fractional NGS count over selection days 2 and 3 (reads of this peptide / all reads for the bait, averaged over ….

Q: With chain 1 D10N as the variant, how does the screen value read?
A: The screen value was 0.000347 average fractional NGS count over selection days 2 and 3 (reads of this peptide / all reads for the bait, averaged over ….

Q: Which screen value does the source give for chain 1 D10H here?
A: Its screen value is 0.000355 average fractional NGS count over selection days 2 and 3 (reads of this peptide / all reads for the bait, averaged over ….

Q: chain 1 Y3A was tested. Which screen value did it give?
A: The screen value was 0.00043 average fractional NGS count over selection days 2 and 3 (reads of this peptide / all reads for the bait, averaged over ….

Q: How did the screen value turn out when chain 1 Y3W was run?
A: Its screen value is 0.00058 average fractional NGS count over selection days 2 and 3 (reads of this peptide / all reads for the bait, averaged over ….

Q: How did the screen value turn out when chain 1 Y3Q was run?
A: The screen value was 0.000114 average fractional NGS count over selection days 2 and 3 (reads of this peptide / all reads for the bait, averaged over ….

Q: For chain 1 Y3M, which screen value is on record?
A: Its screen value is 0.000836 average fractional NGS count over selection days 2 and 3 (reads of this peptide / all reads for the bait, averaged over ….

Q: chain 1 A15E was tested. Which screen value did it give?
A: Its screen value is 0.000423 average fractional NGS count over selection days 2 and 3 (reads of this peptide / all reads for the bait, averaged over ….

Q: For chain 1 A15F, which screen value is on record?
A: Its screen value is 0.000658 average fractional NGS count over selection days 2 and 3 (reads of this peptide / all reads for the bait, averaged over ….

Q: chain 1 A15M was tested. Which screen value did it give?
A: Its screen value is 0.00211 average fractional NGS count over selection days 2 and 3 (reads of this peptide / all reads for the bait, averaged over ….

Q: How did the screen value turn out when chain 1 A15Q was run?
A: The screen value was 0.000281 average fractional NGS count over selection days 2 and 3 (reads of this peptide / all reads for the bait, averaged over ….

Q: How did the screen value turn out when chain 1 A15I was run?
A: Its screen value is 0.000279 average fractional NGS count over selection days 2 and 3 (reads of this peptide / all reads for the bait, averaged over ….

Q: Which screen value does the source give for chain 1 A15S here?
A: Its screen value is 0.000672 average fractional NGS count over selection days 2 and 3 (reads of this peptide / all reads for the bait, averaged over ….

Q: With chain 1 A15H as the variant, how does the screen value read?
A: Its screen value is 0.00152 average fractional NGS count over selection days 2 and 3 (reads of this peptide / all reads for the bait, averaged over ….

Q: chain 1 A15W was tested. Which screen value did it give?
A: The screen value was 0.000559 average fractional NGS count over selection days 2 and 3 (reads of this peptide / all reads for the bait, averaged over ….

Q: chain 1 A15V was tested. Which screen value did it give?
A: Its screen value is 0.00273 average fractional NGS count over selection days 2 and 3 (reads of this peptide / all reads for the bait, averaged over ….

Q: chain 1 E11M was tested. Which screen value did it give?
A: Its screen value is 0.00494 average fractional NGS count over selection days 2 and 3 (reads of this peptide / all reads for the bait, averaged over ….

Q: Which screen value does the source give for chain 1 E11H here?
A: The screen value was 0.000134 average fractional NGS count over selection days 2 and 3 (reads of this peptide / all reads for the bait, averaged over ….

Q: With chain 1 E11T as the variant, how does the screen value read?
A: Its screen value is 0.0139 average fractional NGS count over selection days 2 and 3 (reads of this peptide / all reads for the bait, averaged over ….

Q: chain 1 E11N was tested. Which screen value did it give?
A: Its screen value is 0.00018 average fractional NGS count over selection days 2 and 3 (reads of this peptide / all reads for the bait, averaged over ….

Q: With chain 1 E11W as the variant, how does the screen value read?
A: The screen value was 0.000117 average fractional NGS count over selection days 2 and 3 (reads of this peptide / all reads for the bait, averaged over ….

Q: For chain 1 T6P, which screen value is on record?
A: The screen value was 0.000157 average fractional NGS count over selection days 2 and 3 (reads of this peptide / all reads for the bait, averaged over ….

Q: With chain 1 K14F as the variant, how does the screen value read?
A: Its screen value is 0.00121 average fractional NGS count over selection days 2 and 3 (reads of this peptide / all reads for the bait, averaged over ….

Q: With chain 1 K14S as the variant, how does the screen value read?
A: The screen value was 0.000394 average fractional NGS count over selection days 2 and 3 (reads of this peptide / all reads for the bait, averaged over ….

Q: Which screen value does the source give for chain 1 K14A here?
A: The screen value was 0.000829 average fractional NGS count over selection days 2 and 3 (reads of this peptide / all reads for the bait, averaged over ….

Q: How did the screen value turn out when chain 1 K14T was run?
A: Its screen value is 0.000943 average fractional NGS count over selection days 2 and 3 (reads of this peptide / all reads for the bait, averaged over ….

Q: With chain 1 G2V as the variant, how does the screen value read?
A: Its screen value is 0.000268 average fractional NGS count over selection days 2 and 3 (reads of this peptide / all reads for the bait, averaged over ….

Q: Which screen value does the source give for chain 1 G2T here?
A: The screen value was 0.00134 average fractional NGS count over selection days 2 and 3 (reads of this peptide / all reads for the bait, averaged over ….

Q: With chain 1 G2M as the variant, how does the screen value read?
A: The screen value was 0.0011 average fractional NGS count over selection days 2 and 3 (reads of this peptide / all reads for the bait, averaged over ….

Q: With chain 1 G2K as the variant, how does the screen value read?
A: Its screen value is 0.000562 average fractional NGS count over selection days 2 and 3 (reads of this peptide / all reads for the bait, averaged over ….

Q: How did the screen value turn out when chain 1 G2P was run?
A: Its screen value is 0.0013 average fractional NGS count over selection days 2 and 3 (reads of this peptide / all reads for the bait, averaged over ….

Q: chain 1 W13F was tested. Which screen value did it give?
A: Its screen value is 0.000389 average fractional NGS count over selection days 2 and 3 (reads of this peptide / all reads for the bait, averaged over ….

Q: How did the screen value turn out when chain 1 W13V was run?
A: Its screen value is 0.000494 average fractional NGS count over selection days 2 and 3 (reads of this peptide / all reads for the bait, averaged over ….
